# From PMC4880302
# Legend:
# [1] = target: wild-type HMPV F protein (soluble, secreted, with C-terminal GCNt trimerization domain) (human metapneumovirus, B2 strain); test: SPR; BiOptix 404pi; F proteins captured on NiHC1000m chip through their C-terminal His tag to 120 RU; Fab injected at 300 to 0.14 nM, 100 ul/min; 10 mM HEPES pH 7.2, 150 mM NaCl, 0.005% Tween 20, 50 uM EDTA; simple Langmuir model
# [2] = target: wild-type HMPV F protein (soluble, secreted, with C-terminal GCNt trimerization domain) (human metapneumovirus, B2 strain); test: SEC; gel filtration of the purified F proteins alone (Superdex-200, 25 mM sodium phosphate pH 7.4, 100 mM NaCl)
# [3] = target: wild-type HMPV F protein (soluble, secreted, with C-terminal GCNt trimerization domain) (human metapneumovirus, B2 strain); test: negative-stain EM; purified F proteins on carbon-coated copper grids, 2% uranyl formate; unheated and heated to 50°C
# [4] = target: DS-7 Fab (anti-HMPV F neutralizing antibody); test: SPR; as a1 (ProteOn, Fab immobilised, F injected, bivalent analyte model), but HMPV F proteins heated to 50°C for 30 minutes (post-fusion form)
# [5] = target: DS-7 Fab (anti-HMPV F neutralizing antibody); test: SPR; Bio-Rad ProteOn XPR36; biotinylated antibodies (Fabs) immobilised on NLC chip at 80-300 RU; unheated HMPV F injected at 500, 166.7, 55.5, 18.5, 6.2, 0 nM, 100 ul/min; 20 mM NaPO4 pH 7.4, 100 mM NaCl, 10 mM imidazole, 0.005% Tween 20; bivalent analyte model
Substance,Kd [1],koff [1],kon [1],t1/2 [1],stoichiometry N [2],stoichiometry N [3],Kd [4],koff [4],kon [4],t1/2 [4],Kd [5],koff [5],kon [5],t1/2 [5]
DS-7 Fab (anti-HMPV F neutralizing antibody),0.3 nM,0.000197 s⁻¹,684000 M⁻¹ s⁻¹,59 min,,,,,,,,,,
"wild-type HMPV F protein (soluble, secreted, with C-terminal GCNt trimerization domain) (natural protein)",,,,,3,3,2.8 nM,0.000258 s⁻¹,95700 M⁻¹ s⁻¹,45 min,0.83 nM,0.00012 s⁻¹,147000 M⁻¹ s⁻¹,96 min
